What was measured:
[1] = molecular target: Deinococcus radiodurans LuxS (Deinococcus radiodurans); test: X-ray crystal structure, P21 form, homodimer interface
[2] = molecular target: Deinococcus radiodurans LuxS (Deinococcus radiodurans); test: X-ray crystal structure, C2 form, crystallographic dimer interface
[3] = molecular target: Haemophilus influenzae LuxS (Haemophilus influenzae); test: X-ray crystal structure, homodimer interface
[4] = molecular target: Helicobacter pylori LuxS (Helicobacter pylori); test: X-ray crystal structure, homodimer interface

## Deinococcus radiodurans LuxS (enzyme)
[1]
  surface area buried through this interaction: 3930 Å^2
[2]
  surface area buried through this interaction: 3200 Å^2

## Haemophilus influenzae LuxS (enzyme)
[3]
  surface area buried through this interaction: 4160 Å^2

## Helicobacter pylori LuxS (enzyme)
[4]
  surface area buried through this interaction: 4180 Å^2

Reference: patent publication US20030036091A1
